The record followed here is paper PMC3754857.

The assay has as its target OX40-R65C (human OX40 with p.Arg65Cys), expressed ectopically on cells (human) (UniProt P43489). Put plainly: flow cytometry on cells. (In general: In flow cytometry, cells or beads pass a laser one at a time.)
Sequence of UniProt P43489 (P43489 29-277 R65C): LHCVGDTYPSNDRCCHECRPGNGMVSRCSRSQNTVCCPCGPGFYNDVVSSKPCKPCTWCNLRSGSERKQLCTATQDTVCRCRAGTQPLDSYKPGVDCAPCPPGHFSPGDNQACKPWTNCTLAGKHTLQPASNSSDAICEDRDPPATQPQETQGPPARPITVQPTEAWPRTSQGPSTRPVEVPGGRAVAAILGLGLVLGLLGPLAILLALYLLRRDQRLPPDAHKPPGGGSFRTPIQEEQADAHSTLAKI

As for “biotinylated recombinant soluble human OX40 ligand (OX40L) (from UniProt P23510 51-183)”, the fold decrease of OX40L binding against cells expressing OX40-WT came out at 16 fold.
